From US20250011363A1, “OPTIMIZED SHORTENED PEPTIDE THAT BINDS TO ACETYLCHOLINE RECEPTOR, AND USE THEREOF” (SKINMED CO., LTD., priority 2021, published 2025) come the findings set out here.

This test deals with acetylcholine receptor. The test can be described thus: SPR, AchR immobilized on chip.

B1: RRGVRRL (peptide)
peptide: RRGVRRL
In turn, B1 displayed a Binding affinity (relative to RRGVRR) (value relative to the RRGVRR sequence) of 146.

B2: WRRGVRR (peptide)
peptide: WRRGVRR
Consider B2, for which the Binding affinity (relative to RRGVRR) (value relative to the RRGVRR sequence) was 134.

B3: RRQRRD (peptide)
peptide: RRQRRD
The molecule B3 yielded a Binding affinity (relative to RRQRR) (relative value to the RRQRR sequence) of 65.

B4: GRRGVRR (peptide)
peptide: GRRGVRR
B4 showed a Binding affinity (relative to RRGVRR) (value relative to the RRGVRR sequence) of 137.

B5: RRQRRE (peptide)
peptide: RRQRRE
B5 yielded a Binding affinity (relative to RRQRR) (relative value to the RRQRR sequence) of 37.

B6: DRRGVRR (peptide)
peptide: DRRGVRR
B6 came in with a Binding affinity (relative to RRGVRR) (value relative to the RRGVRR sequence) of 159.

B7: DRRQRR (peptide)
peptide: DRRQRR
B7 showed a Binding affinity (relative to RRQRR) (relative value to the RRQRR sequence) of 163.

B8: RRRQRR (peptide)
peptide: RRRQRR
Turning to B8, the Binding affinity (relative to RRQRR) (relative value to the RRQRR sequence) was 189.

B9: TRRQRR (peptide)
peptide: TRRQRR
B9: the Binding affinity (relative to RRQRR) (relative value to the RRQRR sequence) worked out at 103.

B10: RRGVRRF (peptide)
peptide: RRGVRRF
Take B10: the Binding affinity (relative to RRGVRR) (value relative to the RRGVRR sequence) was 137.

B11: NRRGVRR (peptide)
peptide: NRRGVRR
Turning to B11, the Binding affinity (relative to RRGVRR) (value relative to the RRGVRR sequence) was determined as 109.

B12: RRGVRRY (peptide)
peptide: RRGVRRY
Turning to B12, the Binding affinity (relative to RRGVRR) (value relative to the RRGVRR sequence) was determined as 101.

B13: ERRGVRR (peptide)
peptide: ERRGVRR
As to B13, the Binding affinity (relative to RRGVRR) (value relative to the RRGVRR sequence) was determined as 43.

B14: KRRGVRR (peptide)
peptide: KRRGVRR
For the molecule B14, the Binding affinity (relative to RRGVRR) (value relative to the RRGVRR sequence) was 169.

B15: RRGVRRG (peptide)
peptide: RRGVRRG
On to B15, for which the Binding affinity (relative to RRGVRR) (value relative to the RRGVRR sequence) amounted to 105.

B16: RRGVRRC (peptide)
peptide: RRGVRRC
In turn, B16 yielded a Binding affinity (relative to RRGVRR) (value relative to the RRGVRR sequence) of 131.

B17: RRGVRRI (peptide)
peptide: RRGVRRI
On to B17, for which the Binding affinity (relative to RRGVRR) (value relative to the RRGVRR sequence) came to 138.

B18: RRGVRRK (peptide)
peptide: RRGVRRK
The molecule B18 had a Binding affinity (relative to RRGVRR) (value relative to the RRGVRR sequence) of 171.

B19: LRRGVRR (peptide)
peptide: LRRGVRR
Molecule B19 returned a Binding affinity (relative to RRGVRR) (value relative to the RRGVRR sequence) of 149.

B20: YRRGVRR (peptide)
peptide: YRRGVRR
In turn, B20 registered a Binding affinity (relative to RRGVRR) (value relative to the RRGVRR sequence) of 145.

B21: RRQRRS (peptide)
peptide: RRQRRS
B21 showed a Binding affinity (relative to RRQRR) (relative value to the RRQRR sequence) of 113.

B22: FRRGVRR (peptide)
peptide: FRRGVRR
Take B22: the Binding affinity (relative to RRGVRR) (value relative to the RRGVRR sequence) was found to be 139.

B23: RRGVRRE (peptide)
peptide: RRGVRRE
B23 yielded a Binding affinity (relative to RRGVRR) (value relative to the RRGVRR sequence) of 33.

B24: RRQRRQ (peptide)
peptide: RRQRRQ
With B24, the Binding affinity (relative to RRQRR) (relative value to the RRQRR sequence) came to 101.

B25: ARRGVRR (peptide)
peptide: ARRGVRR
In turn, B25 had a Binding affinity (relative to RRGVRR) (value relative to the RRGVRR sequence) of 134.

B26: NRRQRR (peptide)
peptide: NRRQRR
B26 had a Binding affinity (relative to RRQRR) (relative value to the RRQRR sequence) of 113.

B27: SRRGVRR (peptide)
peptide: SRRGVRR
Molecule B27 had a Binding affinity (relative to RRGVRR) (value relative to the RRGVRR sequence) of 117.

B28: RRGVRRT (peptide)
peptide: RRGVRRT
In the case of B28, the Binding affinity (relative to RRGVRR) (value relative to the RRGVRR sequence) turned out to be 113.

B29: 5mer-ND (peptide)
peptide: KSLLR
B29 registered a Binding affinity (RU) of 23 RU.

B30: IRRGVRR (peptide)
peptide: IRRGVRR
The molecule B30 showed a Binding affinity (relative to RRGVRR) (value relative to the RRGVRR sequence) of 126.

B31: RRRGVRR (peptide)
peptide: RRRGVRR
B31: the Binding affinity (relative to RRGVRR) (value relative to the RRGVRR sequence) was found to be 185.

B32: VRRGVRR (peptide)
peptide: VRRGVRR
In the case of B32, the Binding affinity (relative to RRGVRR) (value relative to the RRGVRR sequence) was 140.

B33: Spep 6mer (peptide)
peptide: RKSLLR
For the molecule B33, the Binding affinity (RU) worked out at 35 RU.

B34: RRGVRRN (peptide)
peptide: RRGVRRN
Molecule B34 registered a Binding affinity (relative to RRGVRR) (value relative to the RRGVRR sequence) of 105.

B35: HRRGVRR (peptide)
peptide: HRRGVRR
B35: the Binding affinity (relative to RRGVRR) (value relative to the RRGVRR sequence) was 160.

B36: HRRQRR (peptide)
peptide: HRRQRR
Molecule B36 gave a Binding affinity (relative to RRQRR) (relative value to the RRQRR sequence) of 164.

B37: RRGVRRM (peptide)
peptide: RRGVRRM
B37 came in with a Binding affinity (relative to RRGVRR) (value relative to the RRGVRR sequence) of 127.

B38: RRGVRRR (peptide)
peptide: RRGVRRR
Regarding B38, the Binding affinity (relative to RRGVRR) (value relative to the RRGVRR sequence) was 188.

B39: RRGVRRV (peptide)
peptide: RRGVRRV
As to B39, the Binding affinity (relative to RRGVRR) (value relative to the RRGVRR sequence) is 149.

B40: RRGVRRQ (peptide)
peptide: RRGVRRQ
Consider B40, for which the Binding affinity (relative to RRGVRR) (value relative to the RRGVRR sequence) is 105.

B41: PRRGVRR (peptide)
peptide: PRRGVRR
B41 had a Binding affinity (relative to RRGVRR) (value relative to the RRGVRR sequence) of 138.

B42: RRQRRK (peptide)
peptide: RRQRRK
Take B42: the Binding affinity (relative to RRQRR) (relative value to the RRQRR sequence) was 175.

B43: QRRQRR (peptide)
peptide: QRRQRR
In turn, B43 registered a Binding affinity (relative to RRQRR) (relative value to the RRQRR sequence) of 105.

B44: RRQRRR (peptide)
peptide: RRQRRR
Regarding B44, the Binding affinity (relative to RRQRR) (relative value to the RRQRR sequence) was 192.

B45: RRQRRN (peptide)
peptide: RRQRRN
B45 had a Binding affinity (relative to RRQRR) (relative value to the RRQRR sequence) of 109.

B46: RRQRRT (peptide)
peptide: RRQRRT
For B46, the Binding affinity (relative to RRQRR) (relative value to the RRQRR sequence) is 117.

B47: YRRQRR (peptide)
peptide: YRRQRR
Consider B47, for which the Binding affinity (relative to RRQRR) (relative value to the RRQRR sequence) is 130.

B48: KRRQRR (peptide)
peptide: KRRQRR
Molecule B48 returned a Binding affinity (relative to RRQRR) (relative value to the RRQRR sequence) of 173.

B49: RRGVRRA (peptide)
peptide: RRGVRRA
Consider B49, for which the Binding affinity (relative to RRGVRR) (value relative to the RRGVRR sequence) came out at 118.

B50: RRQRRH (peptide)
peptide: RRQRRH
B50 returned a Binding affinity (relative to RRQRR) (relative value to the RRQRR sequence) of 158.

B51: RRGVRRD (peptide)
peptide: RRGVRRD
For the molecule B51, the Binding affinity (relative to RRGVRR) (value relative to the RRGVRR sequence) amounted to 61.

B52: MRRGVRR (peptide)
peptide: MRRGVRR
The molecule B52 gave a Binding affinity (relative to RRGVRR) (value relative to the RRGVRR sequence) of 124.

B53: CRRGVRR (peptide)
peptide: CRRGVRR
B53: the Binding affinity (relative to RRGVRR) (value relative to the RRGVRR sequence) stood at 128.

B54: TRRGVRR (peptide)
peptide: TRRGVRR
In the case of B54, the Binding affinity (relative to RRGVRR) (value relative to the RRGVRR sequence) came out at 105.

B55: RRGVRRH (peptide)
peptide: RRGVRRH
For the molecule B55, the Binding affinity (relative to RRGVRR) (value relative to the RRGVRR sequence) stood at 154.

B56: ERRQRR (peptide)
peptide: ERRQRR
In turn, B56 displayed a Binding affinity (relative to RRQRR) (relative value to the RRQRR sequence) of 147.

B57: RRQRRY (peptide)
peptide: RRQRRY
In turn, B57 yielded a Binding affinity (relative to RRQRR) (relative value to the RRQRR sequence) of 105.

B58: RRGVRRW (peptide)
peptide: RRGVRRW
As to B58, the Binding affinity (relative to RRGVRR) (value relative to the RRGVRR sequence) worked out at 134.

B59: QRRGVRR (peptide)
peptide: QRRGVRR
For the molecule B59, the Binding affinity (relative to RRGVRR) (value relative to the RRGVRR sequence) worked out at 101.

B60: RRGVRRP (peptide)
peptide: RRGVRRP
The molecule B60 returned a Binding affinity (relative to RRGVRR) (value relative to the RRGVRR sequence) of 142.

B61: RRGVRRS (peptide)
peptide: RRGVRRS
As for B61, the Binding affinity (relative to RRGVRR) (value relative to the RRGVRR sequence) came out at 118.
